Source: patent publication US20260049137A1 (JANUX THERAPEUTICS, published 2026)
Like-named read-outs stand apart in the source and are kept apart here.

Assays:
[1] = biological target: T1, TROP2 on TROP2 positive NCI-H292 or HCT116 tumor cells (UniProt P09758 27-323, limits assumed); assay: cell-based or functional assay
T1 sequence (looked up): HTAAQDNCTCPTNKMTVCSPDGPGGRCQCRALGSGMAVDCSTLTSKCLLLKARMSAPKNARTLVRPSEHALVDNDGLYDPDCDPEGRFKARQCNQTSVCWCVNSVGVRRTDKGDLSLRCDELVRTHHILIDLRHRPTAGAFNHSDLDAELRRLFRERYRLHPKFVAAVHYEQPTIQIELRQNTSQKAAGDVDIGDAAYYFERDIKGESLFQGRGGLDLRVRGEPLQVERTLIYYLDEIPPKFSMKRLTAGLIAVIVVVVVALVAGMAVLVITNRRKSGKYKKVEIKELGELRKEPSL

[2] = biological target: T1, TROP2 on TROP2 positive NCI-H292 or …; assay: cell-based or functional assay; remark: listed apart in the source
[3] = biological target: T1, TROP2 on TROP2 positive NCI-H292 or …; assay: cell-based or functional assay; remark: listed apart in the source
[4] = biological target: T1, TROP2 on TROP2 positive NCI-H292 or …; assay: cell-based or functional assay; remark: listed apart in the source
[5] = biological target: T2, cynomolgus monkey TROP2 on recombinant HEK293 cells (cynomolgus monkey, UniProt A0A2K5UE71 27-323); assay: cell-based or functional assay
T2 sequence: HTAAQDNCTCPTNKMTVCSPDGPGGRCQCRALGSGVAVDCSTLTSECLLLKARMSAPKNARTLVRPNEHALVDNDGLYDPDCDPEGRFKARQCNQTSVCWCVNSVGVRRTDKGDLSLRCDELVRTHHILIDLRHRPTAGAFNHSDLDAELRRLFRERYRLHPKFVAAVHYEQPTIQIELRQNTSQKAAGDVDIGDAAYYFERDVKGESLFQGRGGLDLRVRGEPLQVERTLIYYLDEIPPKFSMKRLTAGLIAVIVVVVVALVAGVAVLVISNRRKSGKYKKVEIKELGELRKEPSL

[6] = biological target: T1, TROP2 on TROP2 positive NCI-H292 or …; assay: cell-based or functional assay; remark: listed apart in the source
[7] = biological target: T3, human CD3ε-biotin (biotinylated CD3ε) (human, UniProt P07766 23-126, limits assumed, biotinylated); assay: ELISA: biotinylated CD3 captured on neutravidin coated plates, HRP secondary antibody, OD 450 nm
T3 construct: also called CD3e-bio; CD3e-biotin
T3 sequence (P07766 23-126 limits assumed): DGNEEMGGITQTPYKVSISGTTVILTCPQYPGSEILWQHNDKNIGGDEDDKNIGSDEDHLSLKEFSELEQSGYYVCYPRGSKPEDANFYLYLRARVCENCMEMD
Method: (§1) The TCE constructs diluted in buffer were then added to the antigen coated plates. Binding was detected using a standard horse radish peroxidase secondary antibody. The concentration of the TCE required to achieve 50% maximal signal (EC₅₀) was calculated using Graphpad Prism software.

[8] = biological target: T4, human TROP2-biotin (biotinylated TROP2) (human, UniProt P09758 27-274, limits assumed, biotinylated); assay: ELISA: biotinylated TROP2 captured on neutravidin coated plates, HRP secondary antibody, OD 450 nm
T4 construct: also called hTROP2-Biotin
T4 sequence (looked up): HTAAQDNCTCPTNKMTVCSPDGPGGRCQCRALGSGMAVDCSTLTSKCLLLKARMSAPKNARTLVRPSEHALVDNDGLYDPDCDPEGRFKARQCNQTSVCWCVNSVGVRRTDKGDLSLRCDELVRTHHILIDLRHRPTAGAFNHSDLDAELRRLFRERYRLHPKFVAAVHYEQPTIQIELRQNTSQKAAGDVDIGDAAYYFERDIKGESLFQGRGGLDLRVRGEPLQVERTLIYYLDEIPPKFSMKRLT
Method: as §1

B1: TCE-1: anti-CD3 scFv wt + linker + anti-TROP2 HC wt, with anti-TROP2 LC wt (bispecific antibody)
light: DIQLTQSPSSLSASVGDRVSITCKASQDVSIAVAWYQQKPGKAPKLLIYSASYRYTGVPDRFSGSGSGTDFTLTISSLQPEDFAVYYCQQHYITPLTFGAGTKVEIKRTVAAPSVFIFPPSDEQLKSGTASVVCLLNNFYPREAKVQWKVDNALQSGNSQESVTEQDSKDSTYSLSSTLTLSKADYEKHKVYACEVTHQGLSSPVTKSFNRGEC
heavy: not shown
[1]
  H292 Cytotox EC50 (pM): 0.7 pM
[2]
  H292 Cytotox EC50 (pM): 0.7 pM
[3]
  H292 Cytotox EC50 (pM): 0.7 pM

B2: TCE-27: anti-CD3 scFv + linker + anti-TROP2 HC wt, with anti-TROP2 LC wt (bispecific antibody)
light: DIQLTQSPSSLSASVGDRVSITCKASQDVSIAVAWYQQKPGKAPKLLIYSASYRYTGVPDRFSGSGSGTDFTLTISSLQPEDFAVYYCQQHYITPLTFGAGTKVEIKRTVAAPSVFIFPPSDEQLKSGTASVVCLLNNFYPREAKVQWKVDNALQSGNSQESVTEQDSKDSTYSLSSTLTLSKADYEKHKVYACEVTHQGLSSPVTKSFNRGEC
heavy: EVQLVESGGGLVQPGGSLKLSCAASGFTFNKYAMNWVRQASGKGLEWVGRIRSKYNNYATYYADSVKDRFTISRDDSKNTAYLQMNSLKTEDTAVYYCVRHGNFGNSYISYWAYWGQGTLVTVSSGGGGSGGGGSGGGGSQTVVTQEPSFSVSPGGTVTLTCRSSTGAVTSGNYANWVQQTPGQAPRGLIGGTKFLAPGVPDRFSGSILGNKAALTITGAQADDESDYYCVLWYSNRWVFGGGTKLTVLGGGGSQVQLQQSGSELKKPGASVKVSCKASGYTFTNYGMNWVKQAPGQGLKWMGWINTYTGEPTYTDDFKGRFAFSLDTSVSTAYLQISSLKADDTAVYFCARGGFGSSYWYFDVWGQGSLVTVSSASTKGPSVFPLAPSSKSTSGGTAALGCLVKDYFPEPVTVSWNSGALTSGVHTFPAVLQSSGLYSLSSVVTVPSSSLGTQTYICNVNHKPSNTKVDKKVEPKSC
[2]
  H292 Cytotox EC50 (pM): 0.5 pM

B3: TCE-29: anti-CD3 scFv wt + linker + anti-TROP2 (F108A) HC, with anti-TROP2 LC wt (bispecific antibody)
light: DIQLTQSPSSLSASVGDRVSITCKASQDVSIAVAWYQQKPGKAPKLLIYSASYRYTGVPDRFSGSGSGTDFTLTISSLQPEDFAVYYCQQHYITPLTFGAGTKVEIKRTVAAPSVFIFPPSDEQLKSGTASVVCLLNNFYPREAKVQWKVDNALQSGNSQESVTEQDSKDSTYSLSSTLTLSKADYEKHKVYACEVTHQGLSSPVTKSFNRGEC
heavy: not shown
[4]
  H292 Cytotox EC50 (pM): 5 pM
[5]
  CynoTROP2+ HEK293 cells Cytotox EC50 (pM): 0.2 pM
[6]
  HCT116 Cytotox EC50 (pM): 109 pM

B4: TCE-26: anti-CD3 scFv (F240A) + linker + anti-TROP2 HC wt, with anti-TROP2 LC wt (bispecific antibody)
light: DIQLTQSPSSLSASVGDRVSITCKASQDVSIAVAWYQQKPGKAPKLLIYSASYRYTGVPDRFSGSGSGTDFTLTISSLQPEDFAVYYCQQHYITPLTFGAGTKVEIKRTVAAPSVFIFPPSDEQLKSGTASVVCLLNNFYPREAKVQWKVDNALQSGNSQESVTEQDSKDSTYSLSSTLTLSKADYEKHKVYACEVTHQGLSSPVTKSFNRGEC
heavy: not shown
[3]
  H292 Cytotox EC50 (pM): 20 pM

B5: TCE-28: anti-CD3 scFv + linker + anti-TROP2 HC wt, with anti-TROP2 LC wt (bispecific antibody)
light: DIQLTQSPSSLSASVGDRVSITCKASQDVSIAVAWYQQKPGKAPKLLIYSASYRYTGVPDRFSGSGSGTDFTLTISSLQPEDFAVYYCQQHYITPLTFGAGTKVEIKRTVAAPSVFIFPPSDEQLKSGTASVVCLLNNFYPREAKVQWKVDNALQSGNSQESVTEQDSKDSTYSLSSTLTLSKADYEKHKVYACEVTHQGLSSPVTKSFNRGEC
heavy: not shown
[2]
  H292 Cytotox EC50 (pM): 2.1 pM

B6: TCE-33: anti-CD3 scFv + linker + anti-TROP2 (F108A) HC, with anti-TROP2 LC wt (bispecific antibody)
light: DIQLTQSPSSLSASVGDRVSITCKASQDVSIAVAWYQQKPGKAPKLLIYSASYRYTGVPDRFSGSGSGTDFTLTISSLQPEDFAVYYCQQHYITPLTFGAGTKVEIKRTVAAPSVFIFPPSDEQLKSGTASVVCLLNNFYPREAKVQWKVDNALQSGNSQESVTEQDSKDSTYSLSSTLTLSKADYEKHKVYACEVTHQGLSSPVTKSFNRGEC
heavy: EVQLVESGGGLVQPGGSLKLSCAASGFTFNKYAMNWVRQASGKGLEWVGRIRSKYNNYATYYADSVKDRFTISRDDSKNTAYLQMNSLKTEDTAVYYCVRHGNFGNSYISYWAYWGQGTLVTVSSGGGGSGGGGSGGGGSQTVVTQEPSFSVSPGGTVTLTCRSSTGAVTSGNYANWVQQTPGQAPRGLIGGTKFLAPGVPDRFSGSILGNKAALTITGAQADDESDYYCVLWYSNRWVFGGGTKLTVLGGGGSQVQLQQSGSELKKPGASVKVSCKASGYTFTNYGMNWVKQAPGQGLKWMGWINTYTGEPTYTDDFKGRFAFSLDTSVSTAYLQISSLKADDTAVYFCARGGFGSSYWYADVWGQGSLVTVSSASTKGPSVFPLAPSSKSTSGGTAALGCLVKDYFPEPVTVSWNSGALTSGVHTFPAVLQSSGLYSLSSVVTVPSSSLGTQTYICNVNHKPSNTKVDKKVEPKSC
[4]
  H292 Cytotox EC50 (pM): 3 pM
[6]
  HCT116 Cytotox EC50 (pM): 73 pM

B7: TCE-48 (bispecific antibody)
light chain (anti-TROP2 LC wt): DIQLTQSPSSLSASVGDRVSITCKASQDVSIAVAWYQQKPGKAPKLLIYSASYRYTGVPDRFSGSGSGTDFTLTISSLQPEDFAVYYCQQHYITPLTFGAGTKVEIKRTVAAPSVFIFPPSDEQLKSGTASVVCLLNNFYPREAKVQWKVDNALQSGNSQESVTEQDSKDSTYSLSSTLTLSKADYEKHKVYACEVTHQGLSSPVTKSFNRGEC
heavy chain (anti-CD3 scFv L232A + linker + anti-TROP2 F108A HC): not shown
notes: also called TCE-48: anti-CD3 scFv (L232A) + linker + anti-TROP2 (F108A) HC, with anti-TROP2 LC wt
[7]
  EC50: 0.36 nM
[8]
  EC50: 1.3 nM

B8: TCE-19: anti-CD3 scFv (W233A) + linker + anti-TROP2 HC wt, with anti-TROP2 LC wt (bispecific antibody)
light: DIQLTQSPSSLSASVGDRVSITCKASQDVSIAVAWYQQKPGKAPKLLIYSASYRYTGVPDRFSGSGSGTDFTLTISSLQPEDFAVYYCQQHYITPLTFGAGTKVEIKRTVAAPSVFIFPPSDEQLKSGTASVVCLLNNFYPREAKVQWKVDNALQSGNSQESVTEQDSKDSTYSLSSTLTLSKADYEKHKVYACEVTHQGLSSPVTKSFNRGEC
heavy: not shown
[3]
  H292 Cytotox EC50 (pM): > 1000 pM

B9: TCE-30: anti-CD3 scFv (H101A) + linker + anti-TROP2 (F108A) HC, with anti-TROP2 LC wt (bispecific antibody)
light: DIQLTQSPSSLSASVGDRVSITCKASQDVSIAVAWYQQKPGKAPKLLIYSASYRYTGVPDRFSGSGSGTDFTLTISSLQPEDFAVYYCQQHYITPLTFGAGTKVEIKRTVAAPSVFIFPPSDEQLKSGTASVVCLLNNFYPREAKVQWKVDNALQSGNSQESVTEQDSKDSTYSLSSTLTLSKADYEKHKVYACEVTHQGLSSPVTKSFNRGEC
heavy: not shown
[5]
  CynoTROP2+ HEK293 cells Cytotox EC50 (pM): 1 pM

B10: TCE-32: anti-CD3 scFv (F240A) + linker + anti-TROP2 (F108A) HC, with anti-TROP2 LC wt (bispecific antibody)
light: DIQLTQSPSSLSASVGDRVSITCKASQDVSIAVAWYQQKPGKAPKLLIYSASYRYTGVPDRFSGSGSGTDFTLTISSLQPEDFAVYYCQQHYITPLTFGAGTKVEIKRTVAAPSVFIFPPSDEQLKSGTASVVCLLNNFYPREAKVQWKVDNALQSGNSQESVTEQDSKDSTYSLSSTLTLSKADYEKHKVYACEVTHQGLSSPVTKSFNRGEC
heavy: not shown
[5]
  CynoTROP2+ HEK293 cells Cytotox EC50 (pM): 5 pM
[6]
  HCT116 Cytotox EC50 (pM): > 3000 pM

B11: TCE-35: anti-CD3 scFv wt + linker + anti-TROP2 (D109A) HC, with anti-TROP2 LC wt (bispecific antibody)
light: DIQLTQSPSSLSASVGDRVSITCKASQDVSIAVAWYQQKPGKAPKLLIYSASYRYTGVPDRFSGSGSGTDFTLTISSLQPEDFAVYYCQQHYITPLTFGAGTKVEIKRTVAAPSVFIFPPSDEQLKSGTASVVCLLNNFYPREAKVQWKVDNALQSGNSQESVTEQDSKDSTYSLSSTLTLSKADYEKHKVYACEVTHQGLSSPVTKSFNRGEC
heavy: not shown
[4]
  H292 Cytotox EC50 (pM): 1 pM
[5]
  CynoTROP2+ HEK293 cells Cytotox EC50 (pM): 0.1 pM

B12: TCE-49 (bispecific antibody)
light chain (anti-TROP2 LC wt): DIQLTQSPSSLSASVGDRVSITCKASQDVSIAVAWYQQKPGKAPKLLIYSASYRYTGVPDRFSGSGSGTDFTLTISSLQPEDFAVYYCQQHYITPLTFGAGTKVEIKRTVAAPSVFIFPPSDEQLKSGTASVVCLLNNFYPREAKVQWKVDNALQSGNSQESVTEQDSKDSTYSLSSTLTLSKADYEKHKVYACEVTHQGLSSPVTKSFNRGEC
heavy chain (anti-CD3 scFv N236A + linker + anti-TROP2 F108A HC): not shown
notes: also called TCE-49: anti-CD3 scFv (N236A) + linker + anti-TROP2 (F108A) HC, with anti-TROP2 LC wt
[7]
  EC50: 0.23 nM
[8]
  EC50: 0.87 nM

B13: TCE-24: anti-CD3 scFv (W238A) + linker + anti-TROP2 HC wt, with anti-TROP2 LC wt (bispecific antibody)
light: DIQLTQSPSSLSASVGDRVSITCKASQDVSIAVAWYQQKPGKAPKLLIYSASYRYTGVPDRFSGSGSGTDFTLTISSLQPEDFAVYYCQQHYITPLTFGAGTKVEIKRTVAAPSVFIFPPSDEQLKSGTASVVCLLNNFYPREAKVQWKVDNALQSGNSQESVTEQDSKDSTYSLSSTLTLSKADYEKHKVYACEVTHQGLSSPVTKSFNRGEC
heavy: not shown
[3]
  H292 Cytotox EC50 (pM): > 1000 pM
